From patent publication US20150056199A1 come the findings set out here.

Experiment in all cases: cell-based or functional assay
Experiment [1] addresses human TGFβ3 (PeproTech) (human) (UniProt P10600).
Experiment [2] deals with human GDF15 (hGDF15), mature, generated in-house in CHO cells (human) (UniProt Q99988).
Experiment [3] concerns the target human TGFβ1 (PeproTech) (human) (UniProt P01137).
Experiment [4] has as its target murine GDF15 (mGDF15), mature, generated in-house in CHO cells (mouse) (UniProt Q9Z0J7).
In experiment [5] the target is human TGFβ3 (PeproTech) (human) (UniProt P10600). This is another data set of the same source.
The target of experiment [6] is human TGFβ1 (PeproTech) (human) (UniProt P01137). The source holds these as a separate data set.

Where two headings read alike, the source gives them in different places.

Sequence of hTβRIIshort(35-159)-hG2Fc (Fc fusion) (chain): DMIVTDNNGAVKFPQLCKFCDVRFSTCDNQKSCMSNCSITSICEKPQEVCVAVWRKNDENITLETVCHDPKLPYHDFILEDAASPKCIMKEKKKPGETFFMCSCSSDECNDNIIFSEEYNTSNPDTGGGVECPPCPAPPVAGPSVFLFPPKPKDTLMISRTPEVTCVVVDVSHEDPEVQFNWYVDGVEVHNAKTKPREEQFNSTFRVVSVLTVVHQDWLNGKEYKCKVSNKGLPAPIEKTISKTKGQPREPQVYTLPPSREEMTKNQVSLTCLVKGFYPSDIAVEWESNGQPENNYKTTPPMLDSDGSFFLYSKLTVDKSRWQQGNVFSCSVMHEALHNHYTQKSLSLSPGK
Sequence of hTβRIIshort(23-159)-hG2Fc (Fc fusion) (chain): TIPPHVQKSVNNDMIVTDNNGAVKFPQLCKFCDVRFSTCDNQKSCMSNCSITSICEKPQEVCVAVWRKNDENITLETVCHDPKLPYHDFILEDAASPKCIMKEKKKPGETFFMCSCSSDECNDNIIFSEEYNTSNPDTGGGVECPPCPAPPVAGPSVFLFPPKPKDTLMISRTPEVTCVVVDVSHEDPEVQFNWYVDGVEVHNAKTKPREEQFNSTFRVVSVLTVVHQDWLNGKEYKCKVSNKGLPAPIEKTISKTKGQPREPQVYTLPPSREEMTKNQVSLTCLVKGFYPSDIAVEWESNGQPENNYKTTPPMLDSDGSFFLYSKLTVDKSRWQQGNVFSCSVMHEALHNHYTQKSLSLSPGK
Sequence of hTβRIIshort(23-153)-hG2Fc (Fc fusion) (chain): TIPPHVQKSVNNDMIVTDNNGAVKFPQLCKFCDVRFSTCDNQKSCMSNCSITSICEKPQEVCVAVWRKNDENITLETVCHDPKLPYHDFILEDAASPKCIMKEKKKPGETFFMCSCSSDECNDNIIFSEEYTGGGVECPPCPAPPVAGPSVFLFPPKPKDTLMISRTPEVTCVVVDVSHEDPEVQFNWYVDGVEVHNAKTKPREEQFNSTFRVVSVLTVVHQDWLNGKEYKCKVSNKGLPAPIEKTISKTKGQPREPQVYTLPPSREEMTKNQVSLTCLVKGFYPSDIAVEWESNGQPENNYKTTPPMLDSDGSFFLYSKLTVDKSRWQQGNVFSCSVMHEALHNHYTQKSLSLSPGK
Sequence of human GDF15 (hGDF15), mature, generated in-house in CHO cells (human) (Q99988 197-308): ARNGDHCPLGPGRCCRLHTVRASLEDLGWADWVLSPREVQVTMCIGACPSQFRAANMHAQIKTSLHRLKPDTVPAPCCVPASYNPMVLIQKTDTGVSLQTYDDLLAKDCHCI
Sequence of human TGFβ3 (PeproTech) (human) (P10600 301-412 limits assumed): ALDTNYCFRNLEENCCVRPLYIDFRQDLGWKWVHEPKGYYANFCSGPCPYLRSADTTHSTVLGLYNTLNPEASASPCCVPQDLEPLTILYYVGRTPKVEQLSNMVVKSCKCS
Sequence of human TGFβ1 (PeproTech) (human) (P01137 279-390 limits assumed): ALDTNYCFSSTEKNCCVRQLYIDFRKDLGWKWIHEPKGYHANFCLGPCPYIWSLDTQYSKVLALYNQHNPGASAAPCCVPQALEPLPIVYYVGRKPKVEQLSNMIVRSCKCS
Sequence of hTβRIIshort(29-159)-hG2Fc (Fc fusion) (chain): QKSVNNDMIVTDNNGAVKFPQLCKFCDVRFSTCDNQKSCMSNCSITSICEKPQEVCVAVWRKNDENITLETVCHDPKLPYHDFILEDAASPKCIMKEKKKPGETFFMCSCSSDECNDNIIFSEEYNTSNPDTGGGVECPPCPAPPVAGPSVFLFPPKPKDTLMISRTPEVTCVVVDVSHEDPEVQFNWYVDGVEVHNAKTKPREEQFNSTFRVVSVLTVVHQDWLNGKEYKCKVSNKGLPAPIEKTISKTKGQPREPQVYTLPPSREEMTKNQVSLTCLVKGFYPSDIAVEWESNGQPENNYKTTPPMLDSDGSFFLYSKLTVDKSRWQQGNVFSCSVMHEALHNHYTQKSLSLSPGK
Sequence of murine GDF15 (mGDF15), mature, generated in-house in CHO cells (mouse) (Q9Z0J7 192-303): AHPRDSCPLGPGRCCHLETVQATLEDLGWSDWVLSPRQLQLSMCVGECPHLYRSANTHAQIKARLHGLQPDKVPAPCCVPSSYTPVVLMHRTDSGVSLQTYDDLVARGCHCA

hTβRIIshort(23-153)-hG2Fc (Fc fusion) yielded an IC50 (nM), A549 CAGA-12 reporter gene assay, hTGFβ3 (270 pg/ml) in experiment [1] of 0.14 nM. The IC50 (nM), A549 CAGA-12 reporter gene assay, hGDF15 (70 ng/ml) in experiment [2] was 0.18 nM. In experiment [3], this substance registered an IC50 (nM), A549 CAGA-12 reporter gene assay, hTGFβ1 (640 pg/ml) of 2.62 nM.
For “hTβRIIshort(23-153/N70D)-hG2Fc (Fc fusion)”, in experiment [2], the IC50 (nM), A549 CAGA-12 reporter gene assay, hGDF15 (70 ng/ml) came to 2.42 nM. This substance showed an IC50 (nM), A549 CAGA-12 reporter gene assay, hTGFβ1 (640 pg/ml) in experiment [3] of 17.7 nM.
As to hTβRIIshort(23-159)-hG2Fc (Fc fusion), the IC50 (nM), A549 CAGA-12 reporter gene assay, hTGFβ3 (270 pg/ml) in experiment [1] is 0.37 nM; in experiment [5], 0.14 nM. For the same substance, in experiment [2], the IC50 (nM), A549 CAGA-12 reporter gene assay, hGDF15 (70 ng/ml) is 0.14 nM. Further, the IC50 (nM), A549 CAGA-12 reporter gene assay, hTGFβ1 (640 pg/ml) came out at 0.52 nM in experiment [3] and 1.73 nM in experiment [6]. The IC50 (nM), A549 CAGA-12 reporter gene assay, mGDF15 (35 ng/ml) in experiment [4] was 0.12 nM.
“hTβRIIshort(23-159/D110K)-hG2Fc (Fc fusion)”: in experiment [4], the IC50 (nM), A549 CAGA-12 reporter gene assay, mGDF15 (35 ng/ml) was determined as 0.7 nM. In addition, the IC50 (nM), A549 CAGA-12 reporter gene assay, hTGFβ1 (640 pg/ml) in experiment [6] is above 73.6 nM.
Regarding hTβRIIshort(29-159)-hG2Fc (Fc fusion), the IC50 (nM), A549 CAGA-12 reporter gene assay, hTGFβ3 (270 pg/ml) in experiment [1] is above 7.5 nM. In addition, the IC50 (nM), A549 CAGA-12 reporter gene assay, hGDF15 (70 or 112 ng/ml) in experiment [2] turned out to be 0.4 nM. The same substance registered an IC50 (nM), A549 CAGA-12 reporter gene assay, hTGFβ1 (640 pg/ml) in experiment [3] of 2.05 nM.
For the substance hTβRIIshort(35-159)-hG2Fc (Fc fusion), the IC50 (nM), A549 CAGA-12 reporter gene assay, hTGFβ3 (270 pg/ml) in experiment [1] was above 7.5 nM. The IC50 (nM), A549 CAGA-12 reporter gene assay, hGDF15 (70 or 112 ng/ml) in experiment [2] was 0.92 nM. Further, the IC50 (nM), A549 CAGA-12 reporter gene assay, hTGFβ1 (640 pg/ml) in experiment [3] amounted to 2.51 nM.
